From the DeepSol protein solubility set come the findings set out here.

This data set is described as follows: soluble on expression in E. coli; label from the status in PepcDB or PDB records.
For the sequence “MGSDKIHHHHHHMKYLVSIDGGGTKTKFCVSDLDGNILKEHTTGSTNYKSVGIKKTYENINNGFKKILKDLYIDYDDIEYTVFGISGCDSPNDYKIIMDEILKIGINKEKIYLANDAVLAFYAQADSPGLVIVAGTGSIILGIKEDGEIYRVGGWGYNFSDLGSGYDIGRKLLKKVLLYCDECHEYSDLFSCVLDFFGANSFEQLAYMITDINDNVEIANLASLVIDCAEQGDKLAIEILRESSTELSKLAQVILRKISNPMKMDKSEINIVLSGGTLNKTVYVQMLMNNLKTENTDKNLKFISQENQPVYGGIRLAMALANRRVKHG”, the “soluble on expression in E. coli” value is reported as “not soluble”.
For “MEQQIADLLDEQEELDLPQEQLEAAEGESEEESEEESSQGEKFPKTRAARIQRLVRDAAVSRNVKDLYGGECQACGLRLVGPDGRPYSEGAHIRPLGKPHCGPDVEPNVLCLCPNCHVRLDIGAIIIEDDWSIIVRAGELGGNVLSKLKRKKEHHVHLDYVRYHREWWLEKGDPSQELEHHHHHH” the value was “soluble”.
Under “MELKEGDEILNVAGPLGNPAPMEKFGKILAIGAYVGIAEVYPIAKAWQEIGNDVTTLHVTFEPMVILKDYFEKAVSRHIVEPVKIDQEKSFQENTKNVTKALTAKVKELLDNENWDLVFMVGPPGDQKAVFEVVKKYGIPMKVDLHPIMLEHHHHHH” stands “not soluble”; under “MTNWKPLVSVITPSYNARDYIEDTVHSVLDQSHPHWEMIIVDDCSTDGTRDILQQYEKIDERIHVVYLEENSGAAVARNKALERAQGRYVAFLDSDDKWKKDKLEKQLEFMMERSCAFSFTGYSLMAQDGTPLDKFIHAPESLTYDDALKNTIIGCLTVMIDREQTGQIQMPNIRTRQDLATWLSLLKKGFTAYGMNECLAEYRLVNNSISSNKWKAAKKTWFVYREIERLHFMKATWCFVQYAKNAVKKRL”, “soluble”; under “MTQPELTPAQRTEVELLARGRADKSRVLRDLKLPETPEAAHALLLRLGVWDEARTPYADRLRAALNAVELPVPDFDPAEERLDLTHLPTFAIDDEGNQDPDDAVGVEDLGGGLTRLWVHVADVAALVAPDSPLDLEARARGATLYLPDRTIGMLPDELVAKAGLGLHEVSPALSICLDLDPDGNAEAVDVLLTRVKVQRLAYQEAQARLEAGEEPFVTLARLARASRRLREGEGALSIDLPEVRVKADETGASVFPLPKPEMRTVVQECMTLAGWGTAIFADDNEIPLPFATQDYPTREVAGDTLPAMWARRKTLARTRFQPSPGPHHGMGLDLYAQATSPMRRYLDLVVHQQLRAFLAGRDPLSSKVMAAHIAESQMNADATRQAERLSRRHHTLRFIAAQPERVWDAVVVDRRGAQATLLIPDLAFDVQVNTPAAPGTALQVQFADIDLPQMRVRARSVLEHHHHHH”, “soluble”.
For “TMNPLYSVKRAEKRRNVVLGRMLEVGKITQQQYEQAKAETVTATFYGTALEFRADYVTEMIRQEMVKRYGEDVAYNKGF” the value was “not soluble”.
“MDVENEQILNVNPADPDNLSDSLFSGDEENAGTEEVKNEINGNWISAYSINEARINAKAKRRLRKNSSRDSGRGDSVSDSGSDALRSGLTVPTSPKGRLLDRRSRSGKGRGLPKKGGAGGKGVWGTPGQVYDVEEVDVKDPNYDDDQENCVYETVVLPLDERAFEKTLTPIIQEYFEHGDTNEVAEMLRDLNLGEMKSGVPVLAVSLALEGKASHREMTSKLLSDLCGTVMSTTDVEKSFDKLLKDLPELALDTPRAPQLVGQFIARAVGDGILCNTYIDSYKGTVDCVQARAALDKATVLLSMSKGGKRKDSVWGSGGGQQSVNHLVKEIDMLLKEYLLSGDISEAEHCLKELEVPHFHHELVYEAIIMVLESTGESTFKMILDLLKSLWKSSTITVDQMKRGYERIYNEIPDINLDVPHSYSVLERFVEECFQAGIISKQLRDLCPSRGRKRFVSEGDGGRLKPESY”: the “soluble on expression in E. coli” value is recorded as “soluble”.
Under “MDTRDGNEKTRDAILDAAVMHVPFDGWSETTLRAAIRDSGVAPGLARALFPRGGVDLALAYHRRGDERMLEKAAAADLGALRYSERVAALIRFRLEAVEDKELVRRGSTLFSLPQHAGDGARALWGTADRIWTALGDSSRDLNWYTKRATLSAVYAATVLYWLGDDTPGHYATWEFLDRRIADVLRFEKMKTEAQRNPLLRAVTAGPRMVMRRVHAPAPPADVPGRSSRFLEHHHHHH” stands “soluble”; under “GPGSMIFFFTLNLHDRSSLDLRVEFLFSCSDSSDSVAQHLRAIGMRGQLVQKGAATLYAGPKIASYTDACEAPVAMWEGAIPLKHERVLNGGVATRVVKKTYSHPPEIHPTNLSFNDIDSMYCLGNDELIKYFPEGVGGKMMQLMPPGHPRGFLYRKQSHLLNCFIDKLPFWQSKEKALRSLTNGRPGFIMDGPTGCGKSALLCQAVHYARSRDIITLYIANAKAWTHGEWCWPSTILPGFFDAPDAAREFLRTVAEANGSLLQAWELRVTPQDLPLEQGEKQPRSLYDLCEWGHRAVAPASIDRQSVCIKFFFDEIRAEKTKPIIIAVDGWNLFSHETHFRYPHPDFLRTLTTLNDGLTDVDLYPQELPRIPASRLSFVRGLNKLILSKQDPNKFFITCTTRDFKPFDGVSGFADVENDRFKNSLDEYAPYDPEKDSFFHPMQVENFTEYEYRAFLRFAINSGELAGLGWGPMWHYSSDFERKLYKIDFMSDRNPQRVVDHYHQELVWRYEYKRTRQKQYLLARRKMWQGAEVSNPLRNGK”, “not soluble”; under “VTDILREIGMIARALDSISNIEFKELSLTRGQYLYLVRVCENPGIIQEKIAELIKVDRTTAARAIKRLEEQGFIYRQEDASNKKIKRIYATEKGKNVYPIIVRENQHSNQVALQGLSEVEISQLADYLVRMRKNVSEDWEFVKKGNTRNY”, “soluble”.
For MDIYVCTVCGYEYDPAFEDLPDDWACPVCGASKDAFEKQ the value was “soluble”; for “MRRDYMSVYDYPVPTTPWLNTAPGLFIDDYTSTASSTVSSLSRTLIYDYEQNPDSGNNVVALAAKAGYSTWWISNQGKLGEHDTRISVIASDAEHATFLKKGSFASRKTDDKLLLQETERALADTSSPKIIFLHMMGSHPNPCDSLNSLEHHHHHH”, “not soluble”.
“MGSDKIHHHHHHMVIDSIRSSSTGPRDAPGKRLAVGISLFARDGQAIWENGIHQNIAFLAMMLKQSDRIGPVYFLNGGDAKALPAGLDLGGLDVPLVQPRDVSHALDVVIEMGAQLPVDWLKHMKALGKKLVVCFVGHTYSGLTETPMFNRPSGHIFNGGPFDEVWILPKSEKIDAPLLRTLTRAPVHVVPHIWSPYFIERRARELEAAGLRFGYAPGRAKWRLSILEPNISVVKTCHYPMLAADEFHRAQPDAVEHLFVVNSLHMKEHPTFVHFANSLDLVREHKATFEPRIDLPSFLAQHGDAVISHQWENPQNYLYYDVLYGGYPLVHNSPMLGDAGYYYPEFDSAAGGRALQHAWRHHDAHLDDYRRHADALLQAVSIDNRRNLDAYVARLFA”: the “soluble on expression in E. coli” value is on record as “not soluble”.
For “SMKAIVVINLVKINKKIIPDKIYVYRLFNDPEEELQKEGYSIYRLAYENVGIVIDPENLIIATTKELEYEGEFIPEGEISFSELRNDYQSKLVLRLLKENGIGEYELSKLLRKFRKPKTFGDYKVIPSVEMSVIKHDEDFYLVIHIIHQIQSMKTLWELVNKDPKELEEFLMTHKENLMLKDIASPLKTVYKPCFEEYTKKPKLDHNQEIVKYWYNYHIERYWNTPEAKLEFYRKFGQVDLKQPAILAKFASKIKKNKNYKIYLLPQLVVPTYNAEQLESDVAKEILEYTKLMPEERKELLENILAEVDSDIIDKSLSEIEVEKIAQELENKIRVRDDKGNSVPISQLNVQKSQLLLWTNYSRKYPVILPYEVPEKFRKIREIPMFIILDSGLLADIQNFATNEFRELVKSMYYSLAKKYNSLAKKARSTNEIGLPFLDFRGKEKVITEDLNSDKGIIEVVEQVSSFMKGKELGLAFIAARNKLSSEKFEEIKRRLFNLNVISQVVNEDTLKNKRDKYDRNRLDLFVRHNLLFQVLSKLGVKYYVLDYRFNYDYIIGIDVAPMKRSEGYIGGSAVMFDSQGYIRKIVPIKIGEQRGESVDMNEFFKEMVDKFKEFNIKLDNKKILLLRDGRITNNEEEGLKYISEMFDIEVVTMDVIKNHPVRAFANMKMYFNLGGAIYLIPHKLKQAKGTPIPIKLAKKRIIKNGKVEKQSITRQDVLDIFILTRLNYGSISADMRLPAPVHYAHKFANAIRNEWKIKEEFLAEGFLYFV” the value was “soluble”; for “MRQATRKGLMTMAAATGVIAAAGGAAHADSGAHGTSSGSPGVLSGNTVQAPVHVPVNVCGNTVDVVGVLNPAMGNACANQGGGASGGHGGHGGHGGYGDSGGEGGSHGGSHAGGHATDSPGVGSGNHVEVPIDVPVNVCGNSIDVVGALNPTTGNDCGNGGGGDHSTPPGDHETPPGEPHNPGNPGNPDTPDKPSGPDDETPGDSTDGNRPGAQTVDQPRGDAALAETGSDLPLGLALPVGAGALLAGTVLYRKARASVLEHHHHHH”, “not soluble”.
Under “MGSDKIHHHHHHMIHIRPFQHQDADYRVMADVYNALAPDAPLSAIEWRIRDEIHNPNLPLCRWIGELDGRAGGYAEYYQPTWCADPTHLEMQIVVHPAVQGRGLGRALWQHLQMAWQPLRPHHIWLKVREDWQAGLMFAGRRQFHESRRVWVSRLDLATFDPQPFSGSIERVTAQQIELISFAALATADQGFWQQLYEFERQTTGDVPSPFPVTMPTYDQWIKLYQPDHGALWEGSFAAVHEGQIVGISTLETIDDSTDVEVGFTAVRRDYRGRGIALALKLCTIAYAGAQGLSGIRTDNDSTNLAMWHINERLGFRRGPVWIVLHRCEQNEEVT” stands “not soluble”; under “MWFGEFGGQYVPETLIEPLKELEKAYKRFKDDEEFNRQLNYYLKTWAGRPTPLYYAKRLTEKIGGAKIYLKREDLVHGGAHKTNNAIGQALLAKFMGKTRLIAETGAGQHGVATAMAGALLGMKVDIYMGAEDVERQKMNVFRMKLLGANVIPVNSGSRTLKDAINEALRDWVATFEYTHYLIGSVVGPHPYPTIVRDFQSVIGREAKAQILEAEGQLPDVIVACVGGGSNAMGIFYPFVNDKKVKLVGVEAGGKGLESGKHSASLNAGQVGVFHGMLSYFLQDEEGQIKPTHSIAPGLDYPGVGPEHAYLKKIQRAEYVTVTDEEALKAFHELSRTEGIIPALESAHAVAYAMKLAKEMSRDEIIIVNLSGRGDKDLDIVLKVSGNV”, “soluble”; under “MLPSHRSPDSATHDRIRKMTMNAMPQTAAQNETLHTCSIIVDDAQDFSPMLLDAGRDDTLISESMIPQIRTVAALIAAERHDFSRSSPAEFTDAADFFAARILVLGVRRFHLDVSLLQILKTANSRARRFAEKHRLFFTPAQAELSLNKHKNRRLLTVETEHEVENKGNPVANSLAFVRKLHTLPL”, “not soluble”.
Under “MVNKMDIIPEITRKSITDLINNKERIDGRSLHEFRDISIETGVISKAEGSSRVKLGNTQIIVGVKPQIGEPFPDTPEMGVILTNSELLPMASPTFEPGPPDERSVELSRVVDRCIRESRMIDLEKLCIIEGSKVWMLFLDLHIIDYDGNLFDAAVLATVAALLDTRIPAAEVEDGEVVINREKMQPLPVNRKALMCTFAKIGNEIVLDPSLEEEDILTARISIGVTEEGSICAMQKGGEGPLTRDDVLKAVSIAVEKVPQLIEYLDKSMTP” stands “soluble”.
